This note sets out measurements from patent US20240044920A1 (Alexion, published 2024).

Assay [1] concerns the target T1, human ceruloplasmin (human, UniProt P00450 20-1065).
T1 construct: also called CP; purified CP
T1 sequence: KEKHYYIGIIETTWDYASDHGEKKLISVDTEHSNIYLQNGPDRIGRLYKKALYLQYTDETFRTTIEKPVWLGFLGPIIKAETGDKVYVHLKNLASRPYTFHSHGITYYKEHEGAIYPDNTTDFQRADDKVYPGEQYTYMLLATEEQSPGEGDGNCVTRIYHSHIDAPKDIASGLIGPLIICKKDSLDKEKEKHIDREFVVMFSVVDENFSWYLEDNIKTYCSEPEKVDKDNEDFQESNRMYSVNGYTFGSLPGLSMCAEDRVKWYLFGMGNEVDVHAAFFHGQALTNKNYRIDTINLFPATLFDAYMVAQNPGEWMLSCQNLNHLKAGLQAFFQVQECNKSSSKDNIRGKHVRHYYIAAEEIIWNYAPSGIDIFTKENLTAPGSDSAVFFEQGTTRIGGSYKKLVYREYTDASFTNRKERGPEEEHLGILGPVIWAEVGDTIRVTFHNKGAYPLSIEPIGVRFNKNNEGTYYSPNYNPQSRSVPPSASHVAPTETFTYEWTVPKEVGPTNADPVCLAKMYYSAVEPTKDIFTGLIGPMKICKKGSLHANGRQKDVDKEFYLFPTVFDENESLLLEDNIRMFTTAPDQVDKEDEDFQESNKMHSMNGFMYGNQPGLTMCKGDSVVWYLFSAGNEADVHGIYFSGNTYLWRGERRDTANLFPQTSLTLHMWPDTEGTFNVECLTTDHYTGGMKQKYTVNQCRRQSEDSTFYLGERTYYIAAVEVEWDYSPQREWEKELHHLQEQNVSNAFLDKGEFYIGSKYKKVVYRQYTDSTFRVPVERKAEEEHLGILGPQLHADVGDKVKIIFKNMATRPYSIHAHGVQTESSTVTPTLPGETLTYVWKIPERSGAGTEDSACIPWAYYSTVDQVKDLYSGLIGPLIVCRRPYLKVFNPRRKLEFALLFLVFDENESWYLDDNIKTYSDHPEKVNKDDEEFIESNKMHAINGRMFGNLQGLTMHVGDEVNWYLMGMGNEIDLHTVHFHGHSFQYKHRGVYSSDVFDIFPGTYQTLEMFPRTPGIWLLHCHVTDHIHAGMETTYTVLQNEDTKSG
Description: capture ELISA: mAb (CM, 50 ng/mL) on anti-rabbit IgG-Fc; 20 ng/mL purified human CP. The method, then:
(§1) Ceruloplasmin binding by the 28 recombinant anti-CP mAbs was tested as follows. Clear 96-well plates (Nunc, Maxisorp) were coated and incubated overnight at 4 degrees with 10 ug/mL goat anti-rabbit IgG-Fc (Bethyl Laboratories) in BupH carbonate-bicarbonate buffer (ThermoFisher). The coating solution was discarded, and the plates were blocked with 1% BSA in PBS at room temperature for 2 hours and then the blocking solution was discarded. The 28 anti-CP mAb transient conditioned media were diluted to 50 ng/mL in PBS-T containing 1% BSA and incubated on the blocked plates for 1 hour at room temperature. Negative control wells were incubated with PBS-T containing 1% BSA alone or with transient conditioned medium containing non-CP-specific rabbit mAb at 50 ng/mL.
A general note: ELISA stands for enzyme-linked immunosorbent assay.

The target in assay [2] is T1, human ceruloplasmin. As to the kind of experiment: competition ELISA on coated CP, biotinylated probe; competitor: mAb C. As for the experimental part: (§2) To assess whether any of the 8 anti-CP antibodies competed with each other for binding to CP, the following ELISA study was performed.
(§3) Briefly, CP was coated onto plates at 0.4 ug/mL overnight. Plates were then blocked with 1% BSA for 4 hours, incubated with 10 ug/mL unlabeled blocking antibody for 1 hour, and then, without washing, 50 ng/mL of biotinylated probe antibody for 1 hour. Plates were washed and subsequently incubated with SA-HRP for 30 minutes, followed by another wash. Plates were then incubated with TMB substrate for either 30 minutes or 15 minutes, as noted below, and the reaction was stopped by adding 0.18 M sulfuric acid and read at A450. The experiment was performed on two plates with plate 1 having a TMB incubation time of 30 minutes and plate 2 having a TMB incubation time of 15 minutes. Weaker binders to coated CP were tested on plate 1 and stronger binders on plate 2, with some duplication across plates. Probe Ab/blocking Ab interactions are shown in Table 3, and a summary of the binning results for all 8 anti-CP mAbs and for the 5 mAbs showing the most robust signal on coated CP (as shown in FIG. 6) is provided in Tables 4 and 5.

The target of assay [3] is T1, human ceruloplasmin. As to the kind of experiment: competition ELISA on coated CP, biotinylated probe; competitor: mAb D. As for the experimental part:
as §2, §3

Assay [4] concerns the target T1, human ceruloplasmin. Description: competition ELISA on coated CP, biotinylated probe; competitor: CP-pAb. The method, then: as §2, §3
The target of assay [5] is T1, human ceruloplasmin. As to the kind of experiment: capture ELISA: mAb (CM, 50 ng/mL) on anti-rabbit IgG-Fc; endogenous CP in Li-heparin human plasma 1:10,000. As for the experimental part:
as §1

For assay [6], the target named is T1, human ceruloplasmin. As to the kind of experiment: competition ELISA on coated CP, biotinylated probe; competitor: mAb H. As for the experimental part: as §2, §3
For assay [7], the target named is T1, human ceruloplasmin. Description: competition ELISA on coated CP, biotinylated probe; competitor: mAb B. The method, then:
as §2, §3

The target in assay [8] is T1, human ceruloplasmin. As to the kind of experiment: competition ELISA on coated CP, biotinylated probe; competitor: mAb E. The method, then:
as §2, §3

The target in assay [9] is T1, human ceruloplasmin. As to the kind of experiment: competition ELISA on coated CP, biotinylated probe; competitor: mAb A. The method, then: as §2, §3
Assay [10] has as its target T1, human ceruloplasmin. Description: competition ELISA on coated CP, biotinylated probe; competitor: mAb F. The method, then:
as §2, §3

Assay [11] deals with T1, human ceruloplasmin. As to the kind of experiment: competition ELISA on coated CP, biotinylated probe; competitor: mAb G. The method, then: as §2, §3

B1: anti-CP mAb G (antibody, V domains shown)
VH: QSLEESGGRLVTPGTLLTLTCTVSGFSLSSNAMSWVRQAPGEGLEWIGTISSRGSTYYANWAKGRFTISKTSTTVDLKITSPTTEDTATYFCARSSLAGYEPYYFKLWGQGTLVTVSS
VL: DVVMTQTASPVSAAVGGTVTIKCQASESISSYLAWYQQKPGQPPKLLIYGASDLASGVPSRFKGSGSGTEFTLTISDLECADAATYYCQSYYGLSRNGYGNVFGGGTEVVVKG
notes: Recombinant full-length rabbit IgG from HEK-293; also called mAb3
Regarding B1, the A450 with human ceruloplasmin [1] turned out to be 0.987 A450; with human ceruloplasmin [5], 1.18 A450. The “probe binding, % of diluent control” value in the assay with human ceruloplasmin [2] was determined as 108%; in the assay with human ceruloplasmin [3] it was 103%; with human ceruloplasmin [4] it was 6%; with human ceruloplasmin [6], 106%; with human ceruloplasmin [7], 93%; with human ceruloplasmin [8], 102%. Moreover, the entries for the “probe binding, % of diluent control” value with human ceruloplasmin [9] and with human ceruloplasmin [10] were 91% and 84%, respectively.

B2: anti-CP mAb H (antibody, V domains shown)
VH: QSVEESGGRLVTPGTPLTLTCTVSGFSLSTYAMGWVRQAPGKGLEYIGIIYGGSGTFYASWAKGRFTISKTSTTVDLKITSPTTEDTATYFCARDGDDSYFDYFNLWGQGTLVTVSS
VL: AAVLTQTPASVSAAVGGTVSISCQSNENIGSNLAWYQQKPGQPPKLLIYGASTLTSGVPSRFKGSGSGTAFTLTISGVQCDDAATYYCLGGYLSTSDTTFGGGTAVVVKG
notes: Recombinant full-length rabbit IgG from HEK-293; tested as conditioned medium, Protein A-purified and biotinylated
B2: the A450 in the assay with human ceruloplasmin [1] was determined as 0.924 A450; with human ceruloplasmin [5], 1.03 A450. For the same molecule, the “probe binding, % of diluent control” value with human ceruloplasmin [2] stood at 67%; in the assay with human ceruloplasmin [3], 33%; with human ceruloplasmin [4], 2%; with human ceruloplasmin [7], 110%; in the assay with human ceruloplasmin [11], 95%; in the assay with human ceruloplasmin [8], 79%. Besides, the entries for the “probe binding, % of diluent control” value in the assay with human ceruloplasmin [9] and in the assay with human ceruloplasmin [10] were 93% and 94%, respectively.

B3: anti-CP mAb D (antibody, V domains shown)
VH: QEQLVESGGGLVQPEGSLTLTCKASGFDFSSYWMCWVRQAPGKRPEWIACIYGGDGTSYFAGWAKGRFTISKTSSTTVTLQMTSLTAADTATYFCARADYYVYVDGGYGHAYDLWGPGTLVTVSS
VL: DIVMTQTPASVEAAVGGSVTIKCQASDDIYSYLAWYQQKPGQPPKLLIFDASSLPSGVPSRFKGSGSGTQFTLTISGVQCADAATYYCQNYYGSSSSVHAFGGGTEVVVKG
notes: as for B2
Consider B3, for which the results for the A450 with human ceruloplasmin [1] and with human ceruloplasmin [5] were 1.03 A450 and 1.25 A450, respectively. The “probe binding, % of diluent control” value with human ceruloplasmin [2] turned out to be 72%; with human ceruloplasmin [4], 10%; with human ceruloplasmin [6] it was 9%; with human ceruloplasmin [7], 98%; in the assay with human ceruloplasmin [11], 100%; with human ceruloplasmin [8], 98%. Also, the “probe binding, % of diluent control” value with human ceruloplasmin [9] turned out to be 107%; with human ceruloplasmin [10] it was 100%.

B4: anti-CP mAb C (antibody, V domains shown)
VH: QSVEESGGRLVTPGTPLTLTCTASGFSLSRYYMSWVRQAPGKGLEWIGMIYPSSGSTWYASWVKGRFTISATATSVDLKITSPTTEDTATYFCVRDRYPGYNGDSFNLWGQGTLVTVSS
VL: AQVLTQTASPVSAAVGSTVTINCQASQSVYNNNYLAWFQQKPGQPPKRLIYQASKLAIGVPSRFSGSGSGTQFTLTISDVQCDDAATYYCLGSYGCNSVDCNVFGGGTEVVVKG
notes: Recombinant full-length rabbit IgG from HEK-293; also called mAb2
Regarding B4, the results for the A450 in the assay with human ceruloplasmin [1] and in the assay with human ceruloplasmin [5] were 1.09 A450 and 1.27 A450, respectively. In addition, the “probe binding, % of diluent control” value with human ceruloplasmin [3] is 93%; with human ceruloplasmin [4], 3%; in the assay with human ceruloplasmin [6], 85%; in the assay with human ceruloplasmin [7], 95%; with human ceruloplasmin [11] it was 97%; in the assay with human ceruloplasmin [8], 99%. Besides, the “probe binding, % of diluent control” value in the assay with human ceruloplasmin [9] was found to be 100%; with human ceruloplasmin [10], 97%.

B5: anti-CP mAb B (antibody, V domains shown)
VH: QQQLEESGGGLVKPGGTLTLTCKASGIDFSSYYYMCWVRQAPGKGLEWIACIYVIDDTIYCANWAKGRFTISKTSSTTVTLQMTSLTAADTATYFCARDGSSGIRDYFDLWGPGTLVTVSS
VL: AYDMTQTPASVEVAVGGTVTIKCQASESVSTWLAWYQQKPGQPPKLLIYKASDLASGVPSRFKGSGSGTEFTLTISGVECADAATYYCQQGYTYNNVENVFGGGTEVVVKG
notes: as for B2
For B5, the A450 with human ceruloplasmin [1] is 1.02 A450; with human ceruloplasmin [5], 1.32 A450. Besides, the “probe binding, % of diluent control” value was determined as 78% with human ceruloplasmin [2]; 34% in the assay with human ceruloplasmin [3]; 2% with human ceruloplasmin [4]; 204% with human ceruloplasmin [6]; 98% in the assay with human ceruloplasmin [11]; 87% with human ceruloplasmin [8]. Also, the “probe binding, % of diluent control” value is 94% with human ceruloplasmin [9] and 95% in the assay with human ceruloplasmin [10].

B6: anti-CP mAb A (antibody, V domains shown)
VH: QSLEESGGDLVKPGASLTLTCKASGFDLSRFYYMCWVRQAPGKGLEWIACIYAGRTGNTYYASWAKGRFTISKTSSTTVTLQMTSLTAADTATYFCARASGDFLAYTYAMDLWGPGTLVTVSS
VL: AAVLTQTPASVSAAVGGTVTISCQASQSVDNNNYLAWYQQKPGQPPKLLIYEASKLASGVPSRFSGSGSGTQFTLTISDVQCDDATTYYCAGGYSSSADANAFGGGTEVVVKG
notes: as for B2
B6: the figures for the A450 with human ceruloplasmin [1] and in the assay with human ceruloplasmin [5] were 1.09 A450 and 1.4 A450, respectively. For the same molecule, the “probe binding, % of diluent control” value in the assay with human ceruloplasmin [2] amounted to 138%; with human ceruloplasmin [3], 113%; with human ceruloplasmin [4], 17%; with human ceruloplasmin [6], 115%; in the assay with human ceruloplasmin [7] it was 183%; with human ceruloplasmin [11], 35%. The “probe binding, % of diluent control” value is 127% with human ceruloplasmin [8] and -2% with human ceruloplasmin [10].
